Values quoted from earlier work in PMC8481289.

Target: UFC1 (Homo sapiens) (UniProt Q9Y3C8)
Sequence (Q9Y3C8 whole entry): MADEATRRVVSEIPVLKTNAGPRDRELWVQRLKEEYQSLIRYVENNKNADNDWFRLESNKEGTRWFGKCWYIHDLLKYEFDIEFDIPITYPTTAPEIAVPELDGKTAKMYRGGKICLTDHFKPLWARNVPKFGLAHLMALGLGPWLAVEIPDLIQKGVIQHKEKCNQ

UBA5, sequence (Q9GZZ9 whole entry): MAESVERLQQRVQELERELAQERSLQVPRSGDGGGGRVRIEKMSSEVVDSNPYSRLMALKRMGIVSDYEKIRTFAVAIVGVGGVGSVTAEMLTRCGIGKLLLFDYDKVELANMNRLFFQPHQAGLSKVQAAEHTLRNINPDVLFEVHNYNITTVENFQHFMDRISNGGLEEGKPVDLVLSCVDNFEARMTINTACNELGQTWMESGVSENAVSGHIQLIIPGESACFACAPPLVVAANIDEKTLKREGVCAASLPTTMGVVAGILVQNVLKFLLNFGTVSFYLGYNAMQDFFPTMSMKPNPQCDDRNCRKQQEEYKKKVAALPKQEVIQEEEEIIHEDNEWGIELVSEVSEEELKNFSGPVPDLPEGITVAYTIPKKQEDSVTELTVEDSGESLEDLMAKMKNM

Kd: 1000 nM
Substance: UBA5 (from UniProt Q9GZZ9)
